T1: RANK on RAW264.7 cells (mouse (RAW264.7 cells), UniProt O35305 31-625)
T1 sequence (looked up): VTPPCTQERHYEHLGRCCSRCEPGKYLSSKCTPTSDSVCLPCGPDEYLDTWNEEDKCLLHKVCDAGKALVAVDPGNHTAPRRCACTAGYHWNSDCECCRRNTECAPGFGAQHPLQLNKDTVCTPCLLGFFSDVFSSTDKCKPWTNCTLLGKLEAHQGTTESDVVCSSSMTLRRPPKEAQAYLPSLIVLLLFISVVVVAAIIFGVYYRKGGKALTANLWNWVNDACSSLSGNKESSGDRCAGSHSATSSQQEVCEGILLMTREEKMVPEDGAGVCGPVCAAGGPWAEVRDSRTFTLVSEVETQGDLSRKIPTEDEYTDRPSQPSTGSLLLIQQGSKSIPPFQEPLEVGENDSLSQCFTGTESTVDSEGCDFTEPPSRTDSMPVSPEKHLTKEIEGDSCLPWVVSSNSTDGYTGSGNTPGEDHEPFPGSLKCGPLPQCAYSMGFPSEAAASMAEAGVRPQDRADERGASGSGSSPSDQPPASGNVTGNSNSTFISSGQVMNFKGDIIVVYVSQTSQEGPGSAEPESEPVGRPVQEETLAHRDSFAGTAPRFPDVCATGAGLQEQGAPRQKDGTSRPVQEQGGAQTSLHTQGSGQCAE

B1: RANK-Fc (Fc fusion)
chain: IAPPCTSEKHYEHLGRCCNKCEPGKYMSSKCTTTSDSVCLPCGPDEYLDSWNEEDKCLLHKVCDTGKALVAVVAGNSTTPRRCACTAGYHWSQDCECCRRNTECAPGLGAQHPLQLNKDTVCKPCLAGYFSDAFSSTDKCRPWTNCTFLGKRVEHHGTEKSDAVCSSSLPARKPPNEPHVYLP
notes: Bought from R & D Systems; also called receptor RANK-Fc; not shown: Human IgG Fc part and any linker of the bought R & D Systems RANK-Fc
B2: commercial hRANKL standard (ligand, human, UniProt O14788 140-317, looked up)
chain: IRAEKAMVDGSWLDLAKRSKLEAQPFAHLTINATDIPSGSHKVSLSSWYHDRGWAKISNMTFSNGKLIVNQDGFYYLYANICFRHHETSGDLATEYLQLMVYVTKTSIKIPSSHTLMKGGSTKYWSGNSEFHFYSINVGGFFKLRSGEEISIEVSNPSLLDPDQDATYFGAFKVRDID
B3: recombinant human RANKL (ligand)
chain: HHHHHHHHHHGSQHIRAEKAMVDGSWLDLAKRSKLEAQPFAHLTINATDIPSGSHKVSLSSWYHDRGWAKISNMTFSNGKLIVNQDGFYYLYANICFRHHETSGDLATEYLQLMVYVTKTSIKIPSSHTLMKGGSTKYWSGNSEFHFYSINVGGFFKLRSGEEISIEVSNPSLLDPDQDATYFGAFKVRDID

Columns and labels:
[1] = target: B2; test: ELISA, coated commercial hRANKL standard, RANK-Fc titrated, anti-human IgG-Fc
Protocol: (§1) The samples are diluted to 1 μg/ml, was added 100 and incubated overnight at 4° C. RANK-Fc gradient diluted from 10 μg/ml is added, 1:20,000 dilution of secondary antibody (goat anti-human IgG-Fc) is added, the sample is incubated for 1 hour at room temperature, is colored using TMB chromogenic color system. Absorbance value to each well of the 96-well plate is measured on the multifunction microplate reader with a measurement wavelength of 450 nm, a reference wavelength of 630 nm, absorbance value to each well (OD)=OD450 nm-OD630 nm.

recombinant human RANKL = target: B3; test: ELISA, coated recombinant human RANKL, RANK-Fc titrated, anti-human IgG-Fc
Protocol: as §1

RANK on RAW264.7 cells = target: T1, RANK on RAW264.7 cells; test: cell-based or functional assay

EC50 [1] [ng/mL]	EC50 (recombinant human RANKL) [ng/mL]	EC50 of inducing RAW264.7 cells to be differentiated into osteoclasts (tartrate-resistant acid phosphatase, pNPP) (RANK on RAW264.7 cells) [ng/ml]	Binder
5.6	10.9	–	B1
–	–	35.7	B2
–	–	113	B3

— US20160333101A1 (GENOR BIOPHARMA, published 2016)
